As usually defined, the stoichiometry N is the number of molecules, sites or subunits per partner or assembly.

Stoichiometry N data for one substance are collected here from publication PMC8857470, “Molecular insights into the maturation of phosphodiesterase 6 by the specialized chaperone complex of HSP90 with AIPL1” (The Journal of Biological Chemistry, 2022).

The assay has as its target full-length human HSP90β (residues 1–724), pET15b construct (human) (UniProt P08238). As to the kind of experiment: cross-linking + other: mass photometry; DSS (0.5 mM) or glutaraldehyde (0.03%) added to HSP90β (15 μM), AIPL1 (25 μM) or their mixture (HSP90_(AMPPNP)/AIPL1), 15 to 30 min at 25 °C, 25 mM Hepes pH 7.5, 200 mM NaCl, 5% glycerol, 1 mM TCEP; products on 3 to 8% Tris-acetate gel and by mass photometry.

full-length human HSP90β (residues 1–724), pET15b construct, P08238 1-724 (natural protein; other documents disagree on this pair), sequence (P08238 whole entry, the tested form may be a part): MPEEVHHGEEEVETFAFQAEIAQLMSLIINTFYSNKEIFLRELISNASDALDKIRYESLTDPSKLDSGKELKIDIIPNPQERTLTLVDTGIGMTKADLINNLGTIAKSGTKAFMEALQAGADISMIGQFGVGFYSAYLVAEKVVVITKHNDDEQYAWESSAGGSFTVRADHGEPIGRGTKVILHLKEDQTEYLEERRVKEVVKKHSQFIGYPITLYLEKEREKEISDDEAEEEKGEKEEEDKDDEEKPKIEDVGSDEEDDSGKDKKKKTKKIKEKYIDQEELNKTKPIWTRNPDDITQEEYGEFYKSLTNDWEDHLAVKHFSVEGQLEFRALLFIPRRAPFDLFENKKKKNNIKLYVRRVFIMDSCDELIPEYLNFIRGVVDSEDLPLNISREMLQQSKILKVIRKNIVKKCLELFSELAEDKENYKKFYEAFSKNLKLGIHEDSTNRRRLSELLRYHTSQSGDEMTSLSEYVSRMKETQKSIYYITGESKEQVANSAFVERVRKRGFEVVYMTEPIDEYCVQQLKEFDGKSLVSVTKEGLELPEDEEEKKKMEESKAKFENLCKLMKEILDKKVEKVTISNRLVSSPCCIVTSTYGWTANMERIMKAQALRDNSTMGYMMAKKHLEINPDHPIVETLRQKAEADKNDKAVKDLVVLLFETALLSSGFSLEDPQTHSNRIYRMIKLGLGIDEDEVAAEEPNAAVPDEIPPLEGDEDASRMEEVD

For “full-length human HSP90β (residues 1–724), pET15b construct, P08238 1-724 (natural protein; other documents disagree on this pair)”, the stoichiometry N amounted to 2.
